Experimental findings from paper doi:10.1101/2024.04.30.591854 (2024) are described below.

Changes are numbered by the printed parent chain.

The experiment concerns the target HLA-Cw4-β2m complex refolded with peptide (human | ). The experiment in a line: SPR.

B1: KIR2DL1-Fc fusion protein (Fc fusion)
chain: HEGVHRKPSLLAHPGRLVKSEETVILQCWSDVMFEHFLLHREGMFNDTLRLIGEHHDGVSKANFSISRMTQDLAGTYRCYGSVTHSPYQVSAPSDPLDIVIIGLYEKPSLSAQLGPTVLAGENVTLSCSSRSSYDMYHLSREGEAHERRLPAGPKVNGTFQADFPLGPATHGGTYRCFGSFHDSPYEWSKSSDPLLVSVTGNPSNSWPSPTEPSSKTGNPRHLH
B1 came in with a Kd of 6 µM.

B2: KIR2DS1-Fc fusion protein (Fc fusion)
chain: B1 chain with T70K, V90L, L114P, P154T, D163N, H182R, K216E
In turn, B2 came in with a Kd of 23 µM.
